Results as given in US7381537B2, “Use of inhibitors of glutaminyl cyclases for treatment and prevention of disease” (Probiodrug AG, priority 2003, dated 2008).

Columns and labels:
Test in all cases: purified protein, by the assay type;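 also: initial rates read in microplates at 30 °C, with enzyme activity quantified against an ammonia calibration curve recorded under the same assay conditions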
[1] = substrate: CC(C)C[C@H](NC(=O)[C@H](CCCCN)NC(=O)[C@H](CCC(N)=O)NC(=O)[C@H](Cc1c[nH]cn1)NC(=O)[C@H](Cc1c[nH]cn1)NC(=O)[C@@H](NC(=O)[C@H](CCC(=O)O)NC(=O)[C@H](Cc1ccc(O)cc1)NC(=O)CNC(=O)[C@H](CO)NC(=O)[C@H](CC(=O)O)NC(=O)[C@H](Cc1c[nH]cn1)NC(=O)[C@H](CCCNC(=N)N)NC(=O)[C@H](Cc1ccccc1)NC(=O)[C@@H](N)CCC(N)=O)C(C)C)C(=O)N[C@H](C(=O)N[C@@H](Cc1ccccc1)C(=O)N[C@@H](Cc1ccccc1)C(=O)N[C@@H](C)C(N)=O)C(C)C; conditions: other: recombinant human QC, buffer solution containing 1% DMSO; pH 8.8
Experimental: (§1) The initial velocities were evaluated and the enzymatic activity was determined from a standard curve of ammonia under assay conditions. All samples were measured at 30° C., using either the [sequence]luor Plus or the Sunrise (both from TECAN) reader for microplates. Kinetic data was evaluated using GraFit software.

[2] = substrate: N=C(N)NCCC[C@H](NC(=O)[C@H](Cc1ccccc1)NC(=O)[C@@H](N)CCC(N)=O)C(=O)N[C@@H](Cc1c[nH]cn1)C(=O)N[C@@H](CC(=O)O)C(=O)N[C@@H](CO)C(=O)NCC(=O)N[C@@H](Cc1ccc(O)cc1)C(=O)N[C@@H](CCC(=O)O)C(N)=O; conditions: other: recombinant human QC, buffer solution containing 1% DMSO; pH 8.8
Experimental: as §1

[3] = substrate: C[C@H](NC(=O)[C@H](C)NC(=O)[C@H](C)NC(=O)[C@H](C)NC(=O)[C@@H](N)CCC(N)=O)C(N)=O; conditions: other: Table 6, influence of substrate length; pH 8.8
Experimental: as §1

[4] = substrate: C[C@H](NC(=O)[C@H](C)NC(=O)[C@H](CO)NC(=O)[C@H](C)NC(=O)[C@H](C)NC(=O)[C@@H](N)CCC(N)=O)C(N)=O; conditions: other: Table 6, influence of substrate length; pH 8.8
Experimental: as §1

[5] = substrate: CC(C)C[C@H](NC(=O)[C@H](CCCNC(=N)N)NC(=O)[C@H](CCCCN)NC(=O)[C@H](Cc1ccccc1)NC(=O)C[C@@H](N)CCC(N)=O)C(=O)N[C@@H](C)C(N)=O; conditions: other: text b245; pH 8.8
Experimental: as §1

B1: human QC (Homo sapiens) (protein)
chain: VSPSASAWPEEKNYHQPAILNSSALRQIAEGTSISEMWQNDLQPLLIERYPGSPGSYAARQHIMQRIQRLQADWVLEIDTFLSQTPYGYRSFSNIISTLNPTAKRHLVLACHYDSKYFSHWNNRVFVGATDSAVPCAMMLELARALDKKLLSLKTVSDSKPDLSLQLIFFDGEEAFLHWSPQDSLYGSRHLAAKMASTPHPPGARGTSQLHGMDLLVLLDLIGAPNPTFPNFFPNSARWFERLQAIEHELHELGLLKDHSLEGRYFQNYSYGGVIQDDHIPFLRRGVPVLHLIPSPFPEVWHTMDDNEENLDESTIDNLNKILQVFVLEYLHL
- Km [1]: 162 ± 12 µM
- kcat [1]: 62 ± 3 s⁻¹
- kcat/Km [1]: 383000 ± 10000 M⁻¹ s⁻¹
- Km [2]: 155 ± 4 µM
- kcat [2]: 41.4 ± 0.4 s⁻¹
- kcat/Km [2]: 267000 ± 4000 M⁻¹ s⁻¹
- Km [3]: 65 ± 3 µM
- kcat [3]: 60.5 ± 0.7 s⁻¹
- kcat/Km [3]: 1.174e+06 ± 43000 M⁻¹ s⁻¹
- Km [4]: 79 ± 6 µM
- kcat [4]: 55.3 ± 1.6 s⁻¹
- kcat/Km [4]: 700000 ± 33000 M⁻¹ s⁻¹
- Km [5]: 2500 ± 200 µM
- kcat [5]: 3.5 ± 0.1 s⁻¹
- kcat/Km [5]: 1300 ± 100 M⁻¹ s⁻¹
